# No end group written: not given here.
# B1: outer membrane porin OmpF (natural protein)
# chain: AEIYNKDGNKVDLYGKAVGLHYFSKGNGENSYGGNGDMTYARLGFKGETQINSDLTGYGQWEYNFQGNNSEGADAQTGNKTRLAFAGLKYADVGSFDYGRNYGVVYDALGYTDMLPEFGGDTAYSDDFFVGRVGGVATYRNSNFFGLVDGLNFAVQYLGKNERDTARRSNGDGVGGSISYEYEGFGIVGAYGAADRTNLQEAQPLGNGKKAEQWATGLKYDANNIYLAANYGETRNATPITNKFTNTSGFANKTQDVLLVAQYQFDFGLRPSIAYTKSKAKDVEGIGDVDLVNYFEVGATYYFNKNMSTYVDYIINQIDSDNKLGVGSDDTVAVGIVYQF
# B2: pentameric ligand-gated ion channel ELIC (natural protein)
# chain: APADNAADARPVDVSVSIFINKIYGVNTLEQTYKVDGYIVAQWTGKPRKTPGDKPLIVENTQIERWINNGLWVPALEFINVVGSPDTGNKRLMLFPDGRVIYNARFLGSFSNDMDFRLFPFDRQQFVLELEPFSYNNQQLRFSDIQVYTENIDNEEIDEWWIRKASTHISDIRYDHLSSVQPNQNEFSRITVRIDAVRNPSYYLWSFILPLGLIIAASWSVFWLESFSERLQTSFTLMLTVVAYAFYTSNILPRLPYTTVIDQMIIAGYGSIFAAILLIIFAHHRQAMGVEDDLLIQRCRLAFPLGFLAIGCVLVIRGITL
# Columns and labels:
# Experiment in all cases: native MS
# [1] = molecular target: Vibrio sp. N418 semiSWEET (Vibrio sp. N418)
# native MS = molecular target: the molecule itself
# [2] = molecular target: B1
molecule,measurement,setting,value
Vibrio sp. N418 semiSWEET (natural protein),stoichiometry N,[1],2
B1,stoichiometry N,native MS,3
B2,stoichiometry N,native MS,5
SGGDGRGHNTGAHSTSG-NH2 [OBS1 peptide (peptide mimic of colicin OmpF Binding Sequence 1)],Kd,[2],690 nM
same,stoichiometry N,[2],3
